Consider 1 substance from patent US20220317121A1.

Common to all, as to test: line blot with purified recombinant antigen
In test [1] the target is NVL[human]-IF1-H6 (human) (UniProt O15381).
In another test the target is H8-CD2BP2[human] (human) (UniProt O95400).
The target in test [2] is H8-TJP1[human](aa1-575) (human) (UniProt Q07157).
Chain of UniProt Q07157 (Q07157 other isoform, or with tags, fused parts or gaps limits assumed): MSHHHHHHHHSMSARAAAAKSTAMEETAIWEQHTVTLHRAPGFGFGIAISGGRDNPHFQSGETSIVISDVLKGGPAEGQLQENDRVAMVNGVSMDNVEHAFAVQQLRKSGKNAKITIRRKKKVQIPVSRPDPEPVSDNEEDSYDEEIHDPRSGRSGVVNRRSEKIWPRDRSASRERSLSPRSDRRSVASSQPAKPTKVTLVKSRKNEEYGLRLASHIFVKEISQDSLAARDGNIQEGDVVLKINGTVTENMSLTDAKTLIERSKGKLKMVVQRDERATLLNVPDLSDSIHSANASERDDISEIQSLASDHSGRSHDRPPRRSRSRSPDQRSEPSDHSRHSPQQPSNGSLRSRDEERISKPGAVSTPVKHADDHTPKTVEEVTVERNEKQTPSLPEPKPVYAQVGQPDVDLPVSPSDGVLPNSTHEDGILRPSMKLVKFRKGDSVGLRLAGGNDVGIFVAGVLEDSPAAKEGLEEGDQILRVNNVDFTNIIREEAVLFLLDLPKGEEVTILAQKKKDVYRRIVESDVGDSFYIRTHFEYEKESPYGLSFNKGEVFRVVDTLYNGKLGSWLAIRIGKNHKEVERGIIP

Chain of UniProt O15381 (O15381 other isoform, or with tags, fused parts or gaps limits assumed): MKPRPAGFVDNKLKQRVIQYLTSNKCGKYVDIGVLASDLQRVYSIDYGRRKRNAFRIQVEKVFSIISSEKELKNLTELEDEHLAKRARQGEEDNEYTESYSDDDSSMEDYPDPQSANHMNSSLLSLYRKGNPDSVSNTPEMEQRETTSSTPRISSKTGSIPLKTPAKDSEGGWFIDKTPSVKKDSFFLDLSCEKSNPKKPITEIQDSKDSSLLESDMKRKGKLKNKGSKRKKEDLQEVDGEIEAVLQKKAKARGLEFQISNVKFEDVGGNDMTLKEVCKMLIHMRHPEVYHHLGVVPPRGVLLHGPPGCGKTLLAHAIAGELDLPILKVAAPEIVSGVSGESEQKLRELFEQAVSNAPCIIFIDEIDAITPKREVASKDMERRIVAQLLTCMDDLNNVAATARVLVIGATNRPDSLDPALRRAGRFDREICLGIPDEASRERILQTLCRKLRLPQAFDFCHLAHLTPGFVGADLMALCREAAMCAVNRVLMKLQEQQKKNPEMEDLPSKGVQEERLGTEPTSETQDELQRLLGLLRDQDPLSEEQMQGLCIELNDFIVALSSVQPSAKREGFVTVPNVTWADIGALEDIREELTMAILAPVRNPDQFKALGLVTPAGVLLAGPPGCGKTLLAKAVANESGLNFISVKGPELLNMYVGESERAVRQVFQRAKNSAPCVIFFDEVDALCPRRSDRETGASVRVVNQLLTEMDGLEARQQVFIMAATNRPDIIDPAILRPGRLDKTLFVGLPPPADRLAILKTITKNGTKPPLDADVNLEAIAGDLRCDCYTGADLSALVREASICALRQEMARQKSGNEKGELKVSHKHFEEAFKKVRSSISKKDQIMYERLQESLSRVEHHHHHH
Chain of UniProt O95400 (O95400 other isoform, or with tags, fused parts or gaps limits assumed): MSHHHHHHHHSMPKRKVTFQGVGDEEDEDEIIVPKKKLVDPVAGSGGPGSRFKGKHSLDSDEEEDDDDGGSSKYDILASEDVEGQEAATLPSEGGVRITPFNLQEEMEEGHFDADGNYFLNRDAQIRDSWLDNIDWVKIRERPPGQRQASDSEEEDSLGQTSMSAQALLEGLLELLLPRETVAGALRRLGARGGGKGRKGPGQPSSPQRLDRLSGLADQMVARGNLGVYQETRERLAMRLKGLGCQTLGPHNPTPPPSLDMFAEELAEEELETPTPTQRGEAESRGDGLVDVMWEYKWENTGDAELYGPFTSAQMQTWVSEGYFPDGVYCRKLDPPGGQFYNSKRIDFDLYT

As for “anti-His-tag-AP (monoclonal anti-His-AP antibody produced in mouse, A5588, Sigma-Aldrich)”, the values for the band intensity (in test [1]; in the test with H8-CD2BP2[human] (human); in test [2]) were 15, 111 and 101, respectively.
